Consider eleven molecules from patent US20150285810A1 (LUDWIG INSTITUTE FOR CANCER RESEARCH, published 2015).

The labels stand for the following.
B10: iASPP (625-828)-His (other)
chain: LNPLVLLLDAALTGELEVVQQAVKEMNDPSQPNEEGITALHNAICGANYSIVDFLITAGANVNSPDSHGWTPLHCAASCNDTVICMALVQHGAAIFATTLSDGATAFEKCDPYREGYADCATYLADVEQSMGLMNSGAVYALWDYSAEFGDELSFREGESVTVLRRDGPEETDWWWAALHGQEGYVPRNYFGLFPRVKPQRSKVHHHHHH
notes: Contains the ankyrin repeats and SH3 domain; FITC-labelled in the nuclear import assay; also called C-terminal iASPP

Experiment [1] has as its target T1, iASPP (1-240)-GST (human, UniProt Q8WUF5 1-240).
T1 construct: Expressed in bacteria, purified on glutathione beads; also called N-terminal iASPP; not shown: GST tag from pGEX vector (BamHI/EcoRI cloning)
T1 sequence: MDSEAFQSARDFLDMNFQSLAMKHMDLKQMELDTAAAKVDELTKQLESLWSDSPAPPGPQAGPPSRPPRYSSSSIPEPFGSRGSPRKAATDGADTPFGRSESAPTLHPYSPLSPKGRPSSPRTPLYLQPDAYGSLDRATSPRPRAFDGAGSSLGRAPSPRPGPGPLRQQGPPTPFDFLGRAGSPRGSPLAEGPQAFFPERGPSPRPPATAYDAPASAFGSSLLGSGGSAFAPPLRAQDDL
Description: in vitro translated iASPP(625-828)-V5 pulled down with iASPP(1-240)-GST glutathione beads.

The target of experiment [2] is T1, iASPP (1-240)-GST. In words: in vitro translated iASPP(625-828)-V5 mutant pulled down with iASPP(1-240)-GST glutathione beads.
For experiment [3], the target named is T1, iASPP (1-240)-GST. Description: glutathione bead pull-down of purified proteins, anti-His blot.
The target in the experiment “iASPP (625-828)-His” is B10. Described as above.
Another experiment concerns the target T2, iASPP (249-482)-GST (human, UniProt Q8WUF5 249-482).
T2 construct: not shown: GST tag from pGEX vector
T2 sequence: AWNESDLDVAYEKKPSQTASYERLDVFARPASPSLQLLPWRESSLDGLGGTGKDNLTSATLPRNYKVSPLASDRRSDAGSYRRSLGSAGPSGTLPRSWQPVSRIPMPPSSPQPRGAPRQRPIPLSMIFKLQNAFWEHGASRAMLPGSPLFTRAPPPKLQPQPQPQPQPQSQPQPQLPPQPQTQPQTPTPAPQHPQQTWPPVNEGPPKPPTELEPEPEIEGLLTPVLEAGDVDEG
The experiment is described as above.

The target in experiment [4] is p53, transfected (co-transfected in H1299 cells; transfected in Saos-2 cells) (UniProt P04637 1-393). In words: cell-based or functional assay.
Sequence of p53, transfected (co-transfected in H1299 cells; transfected in Saos-2 cells) (P04637 whole entry): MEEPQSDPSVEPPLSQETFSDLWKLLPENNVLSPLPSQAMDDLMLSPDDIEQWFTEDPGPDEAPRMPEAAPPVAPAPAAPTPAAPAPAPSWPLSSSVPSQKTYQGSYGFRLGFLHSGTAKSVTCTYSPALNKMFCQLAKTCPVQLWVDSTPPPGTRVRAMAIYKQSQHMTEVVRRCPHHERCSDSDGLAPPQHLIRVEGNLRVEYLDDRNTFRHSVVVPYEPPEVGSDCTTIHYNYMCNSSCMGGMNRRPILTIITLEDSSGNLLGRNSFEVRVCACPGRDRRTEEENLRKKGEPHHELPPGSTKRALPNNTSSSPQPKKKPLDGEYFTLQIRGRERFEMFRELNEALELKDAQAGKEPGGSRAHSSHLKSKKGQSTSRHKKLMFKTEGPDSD

B1: iASPP (625-828)-V5, wild type, in vitro translated (other)
chain: LNPLVLLLDAALTGELEVVQQAVKEMNDPSQPNEEGITALHNAICGANYSIVDFLITAGANVNSPDSHGWTPLHCAASCNDTVICMALVQHGAAIFATTLSDGATAFEKCDPYREGYADCATYLADVEQSMGLMNSGAVYALWDYSAEFGDELSFREGESVTVLRRDGPEETDWWWAALHGQEGYVPRNYFGLFPRVKPQRSKV
notes: not shown: V5 tag
With B1, the binding result with iASPP (1-240)-GST [1] was “binds”.

B2: iASPP(625-828)/T722A (other)
chain: LNPLVLLLDAALTGELEVVQQAVKEMNDPSQPNEEGITALHNAICGANYSIVDFLITAGANVNSPDSHGWTPLHCAASCNDTVICMALVQHGAAIFAATLSDGATAFEKCDPYREGYADCATYLADVEQSMGLMNSGAVYALWDYSAEFGDELSFREGESVTVLRRDGPEETDWWWAALHGQEGYVPRNYFGLFPRVKPQRSKV
notes: In vitro translated; not shown: V5 tag
Regarding B2, the binding result in the experiment with iASPP (1-240)-GST [2] is “binds”.

B3: iASPP(625-828)/L724A (other)
chain: LNPLVLLLDAALTGELEVVQQAVKEMNDPSQPNEEGITALHNAICGANYSIVDFLITAGANVNSPDSHGWTPLHCAASCNDTVICMALVQHGAAIFATTASDGATAFEKCDPYREGYADCATYLADVEQSMGLMNSGAVYALWDYSAEFGDELSFREGESVTVLRRDGPEETDWWWAALHGQEGYVPRNYFGLFPRVKPQRSKV
notes: as for B2
Turning to B3, the binding result in the experiment with iASPP (1-240)-GST [2] is given as “binds”.

B4: iASPP(625-828)/T722A/N813A (other)
chain: LNPLVLLLDAALTGELEVVQQAVKEMNDPSQPNEEGITALHNAICGANYSIVDFLITAGANVNSPDSHGWTPLHCAASCNDTVICMALVQHGAAIFAATLSDGATAFEKCDPYREGYADCATYLADVEQSMGLMNSGAVYALWDYSAEFGDELSFREGESVTVLRRDGPEETDWWWAALHGQEGYVPRAYFGLFPRVKPQRSKV
notes: as for B2
For B4, the binding result in the experiment with iASPP (1-240)-GST [2] is “binds”.

B5: iASPP(625-828)/N813A (other)
chain: LNPLVLLLDAALTGELEVVQQAVKEMNDPSQPNEEGITALHNAICGANYSIVDFLITAGANVNSPDSHGWTPLHCAASCNDTVICMALVQHGAAIFATTLSDGATAFEKCDPYREGYADCATYLADVEQSMGLMNSGAVYALWDYSAEFGDELSFREGESVTVLRRDGPEETDWWWAALHGQEGYVPRAYFGLFPRVKPQRSKV
notes: as for B2
For B5, the binding result in the experiment with iASPP (1-240)-GST [2] is on record as “binds”.

B6: iASPP(625-828)/T722A/Y814A (other)
chain: LNPLVLLLDAALTGELEVVQQAVKEMNDPSQPNEEGITALHNAICGANYSIVDFLITAGANVNSPDSHGWTPLHCAASCNDTVICMALVQHGAAIFAATLSDGATAFEKCDPYREGYADCATYLADVEQSMGLMNSGAVYALWDYSAEFGDELSFREGESVTVLRRDGPEETDWWWAALHGQEGYVPRNAFGLFPRVKPQRSKV
notes: as for B2
In the case of B6, in the experiment with iASPP (1-240)-GST [2], the binding result is listed as “binds”.

B7: iASPP(625-828)/Y814A (other)
chain: LNPLVLLLDAALTGELEVVQQAVKEMNDPSQPNEEGITALHNAICGANYSIVDFLITAGANVNSPDSHGWTPLHCAASCNDTVICMALVQHGAAIFATTLSDGATAFEKCDPYREGYADCATYLADVEQSMGLMNSGAVYALWDYSAEFGDELSFREGESVTVLRRDGPEETDWWWAALHGQEGYVPRNAFGLFPRVKPQRSKV
notes: as for B2
Regarding B7, the binding result in the experiment with iASPP (1-240)-GST [2] is listed as “binds”.

B8: ASPP2 (905-1128)-His (other)
chain: RTNLRKTGSERIAHGMRVKFNPLALLLDSSLEGEFDLVQRIIYEVDDPSLPNDEGITALHNAVCAGHTEIVKFLVQFGVNVNAADSDGWTPLHCAASCNNVQVCKFLVESGAAVFAMTYSDMQTAADKCEEMEEGYTQCSQFLYGVQEKMGIMNKGVIYALWDYEPQNDDELPMKEGDCMTIIHREDEDEIEWWWARLNDKEGYVPRNLLGLYPRIKPRQRSLAHHHHHH
notes: FITC-labelled in the nuclear import assay; also called C-terminus of ASPP2
On to B8, for which the binding result in the experiment with iASPP (1-240)-GST [3] is reported as “no binding (tested: 10 µg/ml each)”.

B9: iASPP (1-240) S84D/S113D (other)
chain: MDSEAFQSARDFLDMNFQSLAMKHMDLKQMELDTAAAKVDELTKQLESLWSDSPAPPGPQAGPPSRPPRYSSSSIPEPFGSRGDPRKAATDGADTPFGRSESAPTLHPYSPLDPKGRPSSPRTPLYLQPDAYGSLDRATSPRPRAFDGAGSSLGRAPSPRPGPGPLRQQGPPTPFDFLGRAGSPRGSPLAEGPQAFFPERGPSPRPPATAYDAPASAFGSSLLGSGGSAFAPPLRAQDDL
notes: also called iASPP phosphor-mimic mutant; not shown: GST tag from pGEX vector
Consider B9, for which the binding result with iASPP (625-828)-His is on record as “no binding (tested: 10 µg/ml each)”. Turning to B10, the binding result with iASPP (249-482)-GST is given as “no binding (tested: 10 µg/ml each)”.

B11: iASPP(S84D/S113D)-V5 (other, not shown: small tags and cut ends)
chain: MDSEAFQSARDFLDMNFQSLAMKHMDLKQMELDTAAAKVDELTKQLESLWSDSPAPPGPQAGPPSRPPRYSSSSIPEPFGSRGDPRKAATDGADTPFGRSESAPTLHPYSPLDPKGRPSSPRTPLYLQPDAYGSLDRATSPRPRAFDGAGSSLGRAPSPRPGPGPLRQQGPPTPFDFLGRAGSPRGSPLAEGPQAFFPERGPSPRPPATAYDAPASAFGSSLLGSGGSAFAPPLRAQDDLTLRRRPPKAWNESDLDVAYEKKPSQTASYERLDVFARPASPSLQLLPWRESSLDGLGGTGKDNLTSATLPRNYKVSPLASDRRSDAGSYRRSLGSAGPSGTLPRSWQPVSRIPMPPSSPQPRGAPRQRPIPLSMIFKLQNAFWEHGASRAMLPGSPLFTRAPPPKLQPQPQPQPQPQSQPQPQLPPQPQTQPQTPTPAPQHPQQTWPPVNEGPPKPPTELEPEPEIEGLLTPVLEAGDVDEGPVARPLSPTRLQPALPPEAQSVPELEEVARVLAEIPRPLKRRGSMEQAPAVALPPTHKKQYQQIISRLFHRHGGPGPGGPEPELSPITEGSEARAGPPAPAPPAPIPPPAPSQSSPPEQPQSMEMRSVLRKAGSPRKARRARLNPLVLLLDAALTGELEVVQQAVKEMNDPSQPNEEGITALHNAICGANYSIVDFLITAGANVNSPDSHGWTPLHCAASCNDTVICMALVQHGAAIFATTLSDGATAFEKCDPYREGYADCATYLADVEQSMGLMNSGAVYALWDYSAEFGDELSFREGESVTVLRRDGPEETDWWWAALHGQEGYVPRNYFGLFPRVKPQRSKV
With B11, the “inhibition of p53 mediated transcription (PIG3 reporter, Saos-2 cells), against wild type iASPP” value in experiment [4] was roughly 3 fold.
